Literature values in PMC6423427.

Target: BiP (Homo sapiens) (UniProt P11021)
Chain of UniProt P11021 (P11021 19-654): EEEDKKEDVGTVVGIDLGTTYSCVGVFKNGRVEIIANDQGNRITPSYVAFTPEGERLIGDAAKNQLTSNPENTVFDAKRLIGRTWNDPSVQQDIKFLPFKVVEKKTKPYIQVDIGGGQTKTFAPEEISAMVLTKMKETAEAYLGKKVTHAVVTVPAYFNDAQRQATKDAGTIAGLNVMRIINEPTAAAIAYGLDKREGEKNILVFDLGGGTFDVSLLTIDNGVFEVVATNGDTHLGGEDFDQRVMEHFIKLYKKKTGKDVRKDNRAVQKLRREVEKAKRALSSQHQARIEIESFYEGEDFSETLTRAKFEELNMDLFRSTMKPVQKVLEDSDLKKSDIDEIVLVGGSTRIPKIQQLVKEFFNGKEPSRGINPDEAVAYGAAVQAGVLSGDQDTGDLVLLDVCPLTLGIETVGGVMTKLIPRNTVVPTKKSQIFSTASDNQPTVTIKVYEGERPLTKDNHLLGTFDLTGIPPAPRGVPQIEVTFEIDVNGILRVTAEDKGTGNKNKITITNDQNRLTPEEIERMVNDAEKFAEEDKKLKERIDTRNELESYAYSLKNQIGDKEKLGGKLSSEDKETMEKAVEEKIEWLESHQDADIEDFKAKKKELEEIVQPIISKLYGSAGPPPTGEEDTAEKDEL

IRE1 LD (from UniProt O75460)
Kd: 1500 nM
